Source: US20220289791A1, “LACTATE DEHYDROGENASE INHIBITOR POLYPEPTIDES FOR USE IN THE TREATMENT OF CANCER” (UNIVERSITÉ CATHOLIQUE DE LOUVAIN, priority 2019, published 2022)
*1 amine or outer side, *2 acyl side, *3 side chain or, on linkers, in order; H or OH if unused. Where a SMILES comes first, the peptide text is derived from it. Bridges are numbered along the chain shown (N, C = ends). Where no end group is shown, it is not given here. [ ]: non-standard residue; d: D form. α,α'‑bisbromoxylene = α,α'-bisbromoxylene, a linker that cyclises the cysteines (bisbromoxylene cysteine cyclisation); C6F4(1,4-diyl) = Fc1c(F)c([*:2])c(F)c(F)c1[*:1]; mXylylene = c1cc(C[*:1])cc(C[*:2])c1; oXylylene = c1ccc(C[*:2])c(C[*:1])c1; pXylylene = c1cc(C[*:2])ccc1C[*:1]; Ala(cPr) = N[C@@H](CC1CC1)C(=O)O; tBuAla = CC(C)(C)C[C@H](N)C(=O)O; Aib = CC(C)(N)C(=O)O

Legend:
[1] = target: truncated LDHB (LDHBtr) (Homo sapiens, UniProt P07195); assay: Microscale thermophoresis (MST), Example 2, macrocycles against truncated LDHB; assay type: binding; settings: for Kd: MST traces at 10 s to 20 s on time
Experimental: MST measurements were performed on a Nanotemper Monolith NT.115 instrument (NanoTemper Technologies®) using Red-dye-NHS fluorescent labeling. Each LDH sample, purified to homogeneity, was labeled with the Monolith Red-dye-NHS 2nd generation labeling dye (NanoTemper Technologies®), according to the manufacturer's instructions. Measurements were performed in 50 mM sodium phosphate, pH 7.6, and 100 mM NaCl containing 0.05% Tween-20 in premium-treated capillaries (NanoTemper Technologies®). The final concentrations of either labeled protein in the assay were 100 nM. The ligands (NADH and peptides) were titrated in 1:1 dilutions following manufacturer's recommendations. All binding reactions were incubated for 5 min at room temperature after loading into capillaries. Experiments were performed in triplicates using 40% LED power, medium MST power, Laser On time 20 s and Laser Off time 3 s. Peptides were evaluated for their thermophoretic pattern, and Kd's were extracted from raw data at a 10 to 20 s MST on time according to manufacturer's instructions. Regarding interaction of 7 with LDH5, Kd was extracted from the raw fluorescence. A denaturation test was performed accordingly to manufacturer recommendation and excluded any nonspecific spectral interaction between 7 and the red-dye. All Kd's of interacting macrocycles and peptides were obtained in triplicate and corrected by taking into account the molecular weight of the TFA counter ion.

[2] = target: T1, LDHBtr (Homo sapiens, UniProt P07195); assay: Microscale thermophoresis (MST), Example 1; assay type: binding; settings: linear peptides; read-out: Kd using MST experiment
Experimental: MST measurements were performed on a Nanotemper Monolith NT.115 instrument (Nanotemper Technologies®, GmbH) using Red-dye-NHS fluorescent labeling. Each LDH (WT or truncated) sample, purified to homogeneity, was labeled with the Monolith RED-NHS 2nd generation labeling dye according to the supplied protocol (Nanotemper Technologies®, GmbH). Measurements were performed in 50 mM Na-Phosphate pH 7.6 and 100 mM NaCl containing 0.05% Tween-20 in premium treated capillaries (Nanotemper Technologies®, GmbH). The final concentrations of either labeled protein in the assay were 100 nM. The ligands (NADH and peptides) were titrated in 1:1 dilutions following manufacturer's recommendations. All binding reactions were incubated 5′ at room temperature after loading into capillaries. Experiments were performed in triplicates using 40% LED power and medium MST power, LaserOn time was 20 sec, Laser Off time 3 sec. Linear octapeptides were evaluated for their thermophoretic pattern.

[3] = target: T1, LDHBtr; assay: NMR WaterLOGSY binding screening
Experimental: All experiments were acquired on a Bruker Ascend Avance III 600 MHz equipped with a broadband cryoprobe (Bruker® GmBH, Germany)
NMR WaterLOGSY was performed on samples prepared in 10% D2O buffer containing 50 mM sodium phosphate buffer, pH 7.6 and 100 mM NaCl. The concentration of LDH subunits was 15-20 μM. Ligand binding was detected using a NMR WaterLOGSY ephogsygpno.2 advance-version sequence with a […]. Water signal suppression was achieved using excitation sculpting scheme and a 50 ms spinlock was used to suppress protein background signal. For each experiment, 512 scans were collected to yield a 16K points FID. NMR WaterLOGSY intensity was corrected by plotting the intensity difference of the ligand NMR WaterLOGSY spectra recorded in the presence and absence of protein.
For NMR WaterLOGSY screening experiments a correction factor was applied to account for slight concentration variation between samples. To do so, 8 scans 1H NMR spectra with 50 ms spinlock were recorded before NMR WaterLOGSY experiments. The intensity ratio of the aliphatic region (0.700 ppm to 0.955 ppm) with and without protein was used as a correction factor to compare the NMR WaterLOGSY intensity of the polypeptides of interest with and without LDH subunits. An arbitrary threshold of 0.1, corresponding to a 10% decrease in the NMR WaterLOGSY signal intensity between the spectra with and without protein, was set to discriminate between binders and non-binders.

[4] = linear peptides at 800 μM, LDHBtr 15 μM

T1 sequence (P07195 21-334): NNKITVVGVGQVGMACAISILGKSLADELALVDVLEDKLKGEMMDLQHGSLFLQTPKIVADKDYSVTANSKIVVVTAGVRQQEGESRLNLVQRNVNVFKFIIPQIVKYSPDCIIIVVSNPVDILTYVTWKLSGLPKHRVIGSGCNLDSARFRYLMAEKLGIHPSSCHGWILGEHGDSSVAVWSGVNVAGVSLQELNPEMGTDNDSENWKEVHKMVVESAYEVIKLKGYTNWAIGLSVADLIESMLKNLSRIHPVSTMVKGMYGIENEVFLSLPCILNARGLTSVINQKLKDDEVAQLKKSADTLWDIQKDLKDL
Chain of truncated LDHB (LDHBtr) (P07195 21-334): as above

Binding using WaterLOGSY (800 μM) [3, 4] | Compound | also measured
– | CC[C@H](C)[C@H](NC(=O)[C@H](CC(C)C)NC(=O)[C@H](CCCCN)NC(=O)[C@@H]1CSc2c(F)c(F)c(c(F)c2F)SC[C@H](N)C(=O)N[C@@H]([C@@H](C)O)C(=O)N[C@@H](CC(C)(C)C)C(=O)N[C@@H](CCCCN)C(=O)N1)C(N)=O [CT-44, CT(mlL)KCKLI] (H-CT[tBuAla]KCKLI-NH2; linker 1-5 via C6F4(1,4-diyl); N-terminus assumed) | MST binding to LDHBtr [1]: did not affect the binding properties
– | CC[C@H](C)[C@H](NC(=O)[C@H](CC1CC1)NC(=O)[C@H](CCCCN)NC(=O)[C@@H]1CSc2c(F)c(F)c(c(F)c2F)SC[C@H](N)C(=O)N[C@@H]([C@@H](C)O)C(=O)N[C@@H](CC(C)C)C(=O)N[C@@H](CCCCN)C(=O)N1)C(N)=O [CT-45, CTLKCK(cpA)I] (H-CTLKCK[Ala(cPr)]I-NH2; linker 1-5 via C6F4(1,4-diyl); N-terminus assumed) | MST binding to LDHBtr [1]: unaltered Kd value, or even a slightly improved Kd value
– | CC[C@H](C)[C@H](NC(=O)[C@H](C)NC(=O)[C@H](CCCCN)NC(=O)[C@H](CCC(=O)O)NC(=O)[C@H](CCCCN)NC(=O)[C@H](CC(C)C)NC(=O)[C@@H](NC(=O)[C@H](C)N)[C@@H](C)O)C(N)=O [LB8-A6, ATLKEKAI] (H-ATLKEKAI-NH2) | Kd [2]: > 10000 µM
– | CC[C@H](C)[C@H](NC(=O)[C@H](CC(C)C)NC(=O)[C@H](CCCCN)NC(=O)[C@H](CCC(=O)O)NC(=O)[C@H](CCCCN)NC(=O)CNC(=O)[C@@H](NC(=O)[C@H](C)N)[C@@H](C)O)C(N)=O [LB8-G3, ATGKEKLI] (H-ATGKEKLI-NH2) | Kd [2]: > 10000 µM
+ (binders) | CC[C@H](C)[C@H](NC(=O)[C@H](CC(C)C)NC(=O)[C@H](CCCCN)NC(=O)[C@H](CCC(=O)O)NC(=O)[C@H](CCCCN)NC(=O)[C@H](CC(C)C)NC(=O)[C@@H](NC(=O)[C@H](C)N)[C@@H](C)O)C(=O)N[C@@H](C)C(=O)N1CCC[C@H]1C(=O)N[C@H](C(=O)N[C@@H](C)C(=O)N[C@@H](CCC(=O)O)C(N)=O)C(C)C [LB13, ATLKEKLIAPVAE] (H-ATLKEKLIAPVAE-NH2; N-terminus assumed) | NMR WaterLOGSY signal / saturation transfer [3]: exact same NMR WaterLOGSY spectrum than LB19
– | CC[C@H](C)[C@H](NC(=O)[C@H](CC(C)C)NC(=O)[C@H](CCCCN)NC(=O)[C@H](CCC(=O)O)NC(=O)[C@@H]1CSCc2cccc(c2)CSC[C@H](N)C(=O)N[C@@H](C)C(=O)N[C@@H]([C@@H](C)O)C(=O)N[C@@H](CC(C)C)C(=O)N1)C(N)=O [MP6, CATLCEKLI] (H-CATLCEKLI-NH2; linker 1-5 via mXylylene) | Kd [1]: > 1000 µM
– | CC[C@H](C)[C@H](NC(=O)[C@H](CC(C)C)NC(=O)[C@H](CCCCN)NC(=O)[C@@H]1CSCc2ccccc2CSC[C@H](N)C(=O)N[C@@H]([C@@H](C)O)C(=O)N[C@@H](CC(C)C)C(=O)N[C@@H](CCCCN)C(=O)N1)C(N)=O [MP8, CTLKCKLI] (H-CTLKCKLI-NH2; linker 1-5 via oXylylene; N-terminus assumed) | Kd [1]: 25 µM
– | CC[C@H](C)[C@H](NC(=O)[C@H](CC(C)C)NC(=O)[C@H](CCCCN)NC(=O)[C@@H]1CSCc2ccc(cc2)CSC[C@H](N)C(=O)N[C@@H]([C@@H](C)O)C(=O)N[C@@H](CC(C)C)C(=O)N[C@@H](CCCCN)C(=O)N1)C(N)=O [MP9, CTLKCKLI] (H-CTLKCKLI-NH2; linker 1-5 via pXylylene; N-terminus assumed) | Kd [1]: 113 µM
– | CC[C@H](C)[C@H](NC(=O)[C@H](CC(C)C)NC(=O)[C@H](CCCCN)NC(=O)[C@@H]1CC(=O)NCCCC[C@H](NC(C)=O)C(=O)N[C@@H]([C@@H](C)O)C(=O)N[C@@H](CC(C)C)C(=O)N[C@@H](CCCCN)C(=O)N1)C(N)=O [MP10, Ac-KTLKDKLI] (Ac-KTLKDKLI-NH2; lactam 1-5) | Kd [1]: 142 µM
– | CC[C@H](C)[C@H](NC(=O)[C@H](CC(C)C)NC(=O)[C@H](CCCCN)NC(=O)[C@@H]1CCC(=O)N[C@@H](C)C(=O)N[C@@H]([C@@H](C)O)C(=O)N[C@@H](CC(C)C)C(=O)N[C@@H](CCCCN)C(=O)N1)C(N)=O [MP11, ATLKEKLI] (ATLKEKLI-NH2; lactam N-5) | Kd [1]: 465 µM
− (non-binders) | AALKEKLI [LB8-A1, LB8 structural analogue] | –
– | ACLKECLI [VS-142-BisAlk, cyclic peptide, cysteines alkylated using α,α′ bisbromoxylene] | Binding using WaterLOGSY (800 μM) ([3]; cyclic peptides at 800 μM): + (binders)
– | ACTLKCKLI (linker 2-6 via α,α'‑bisbromoxylene (inferred)) [LT021, cyclic peptide, cysteines alkylated using α,α′ bisbromoxylene] | Binding using WaterLOGSY (800 μM) ([3]; cyclic peptides at 800 μM): + (binders)
+ (binders) | ATAKEKLI (LB8-A2) [LB8 structural analogue] | –
+ (binders) | ATL(Aib)E(Aib)LI (ATL[Aib]E[Aib]LI; not fully specified (C-terminus)) [LB8-Aib3, LB8 structural analogue] | –
+ (binders) | ATL(Aib)EKLI (ATL[Aib]EKLI; not fully specified (C-terminus)) [LB8-Aib1, LB8 structural analogue] | –
+ (binders) | ATLAEALI (LB8-A3-A5) [LB8 structural analogue] | –
+ (binders) | ATLAEKLI (LB8-A3) [LB8 structural analogue] | –
+ (binders) | ATLKAKLI (LB8-A4) [LB8 structural analogue] | –
+ (binders) | ATLKDQLI [LA8, linear polypeptide] | –
+ (binders) | ATLKDQLIYNLLKEEQTPQ (LA19) [linear polypeptide] | –
+ (binders) | ATLKE(Aib)LI (ATLKE[Aib]LI; not fully specified (C-terminus)) [LB8-Aib2, LB8 structural analogue] | –
+ (binders) | ATLKEALI (LB8-A5) [LB8 structural analogue] | –
+ (binders) | ATLKEKLA (LB8-A7) [LB8 structural analogue] | –
+ (binders) | ATLKEKLG (LB8-G8) [LB8 structural analogue] | –
+ (binders) | Ac-ATLKEKLI [Ac-LB8, LB8 structural analogue] | –
− (non-binders) | Ac-TLKEKLI [LB8-AcTI7, LB8 structural analogue] | –
+ (binders) | GTLKEKLI (LB8-G1) [LB8 structural analogue] | –
− (non-binders) | TLKEKLI (LB8-TI7) [LB8-T17, LB8 structural analogue] | –

Compound | Binding using WaterLOGSY (800 μM) [3, 4] | also measured
ATLKEKL (LB8-AL7) [LB8 structural analogue] | − (non-binders) | –
